Drawing on patent US20240417476A1 (ATYR PHARMA, published 2024), this text covers binding result and blocks receptor dimerization for two molecules.

Test [1] has as its target T1, NRP2a_scan 1 peptide (biotinylated) (human, also: biotin-conjugated, site not given here).
T1 peptide: VDIPEIHEREGY
Kind of test: peptide ELISA.

Test [2] concerns the target T2, mNRP2A peptide (biotinylated) (mouse, biotin-conjugated, site not stated).
T2 construct: also called mouse NRP2 isoform a peptide
Kind of test: BLI, peptide on sensor. In general terms: In BLI a coated tip is dipped into the sample, and binding shifts an interference pattern.

In test [3] the target is T3, NRP2b peptide (biotinylated) (human, biotin-conjugated, site not stated).
T3 construct: also called NRP2b isoform specific peptide
T3 peptide: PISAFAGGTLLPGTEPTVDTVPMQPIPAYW
Kind of test: BLI, peptide on sensor.

Test [4] concerns the target T4, NRP2a_scan 2 peptide (biotinylated) (human, also: biotin-conjugated, site not given here).
T4 peptide: PEIHEREGYEDE
Kind of test: BLI, peptide on sensor.

In test [5] the target is T5, NRP2a_scan 3 peptide (biotinylated) (human, also: biotin-conjugated, site not given here).
T5 peptide: HEREGYEDEIDD
Kind of test: BLI, peptide on sensor.

The target in test [6] is T6, NRP2a_scan 4 peptide (biotinylated) (human, also: biotin-conjugated, site not given here).
T6 peptide: EGYEDEIDDEYE
Kind of test: BLI, peptide on sensor.

The target of test [7] is T7, NRP2a_scan 5 peptide (biotinylated) (human, also: biotin-conjugated, site not given here).
T7 peptide: EDEIDDEYEVDW
Kind of test: BLI, peptide on sensor.

In test [8] the target is T8, NRP2a_scan 6 peptide (biotinylated) (human, also: biotin-conjugated, site not given here).
T8 peptide: IDDEYEVDWSNS
Kind of test: BLI, peptide on sensor.

Test [9] addresses T9, NRP2a_scan 7 peptide (biotinylated) (human, also: biotin-conjugated, site not given here).
T9 peptide: EYEVDWSNSSSA
Kind of test: BLI, peptide on sensor.

The target in test [10] is T10, Mid-NRP2A peptide (biotinylated) (human, biotin-conjugated, site not stated).
T10 peptide: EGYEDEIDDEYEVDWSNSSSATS
Kind of test: BLI, peptide on sensor.

Test [11] has as its target T11, Mid-mNRP2A peptide (biotinylated) (mouse, biotin-conjugated, site not stated).
T11 peptide: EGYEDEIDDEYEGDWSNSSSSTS
Kind of test: BLI, peptide on sensor.

Test [12] addresses mNRP2b peptide (biotinylated) (mouse, biotin-conjugated, site not stated). Kind of test: BLI, peptide on sensor.
Test [13] concerns the target T12, Short NRP2A peptide (biotinylated) (human, biotin-conjugated, site not stated). Kind of test: BLI, peptide on sensor, 50 nM antibody.
For test [14], the target named is T13, NRP2A peptide (biotinylated) (human, biotin-conjugated, site not stated).
T13 construct: also called NPR2A; NRP2a specific peptide
Kind of test: BLI, isoform peptide on sensor, 50 nM antibody.

Test [15] has as its target T14, Human NRP2a v2 (926aa) in pBiT2.1-C with C-terminal split NanoLuc tag, expressed in Expi293 cells (human, UniProt O60462 23-931).
T14 construct: cDNA Origene RCC220706, isoform 2; also called pBiT2.1-C-NRP2v2 (isoform 2); NRP2 v2; not shown: vector-encoded spacer and small split NanoLuc fragment (pBiT2.1-C)
Kind of test: CCL21-induced NRP2a/CCR7 receptor dimerization (NanoBiT, Example 7); mark beside the epitope box.

Test [16] has as its target T15, human NRP2b expressed on Expi293F cells (human).
T15 construct: also called full length NRP2b
T15 chain: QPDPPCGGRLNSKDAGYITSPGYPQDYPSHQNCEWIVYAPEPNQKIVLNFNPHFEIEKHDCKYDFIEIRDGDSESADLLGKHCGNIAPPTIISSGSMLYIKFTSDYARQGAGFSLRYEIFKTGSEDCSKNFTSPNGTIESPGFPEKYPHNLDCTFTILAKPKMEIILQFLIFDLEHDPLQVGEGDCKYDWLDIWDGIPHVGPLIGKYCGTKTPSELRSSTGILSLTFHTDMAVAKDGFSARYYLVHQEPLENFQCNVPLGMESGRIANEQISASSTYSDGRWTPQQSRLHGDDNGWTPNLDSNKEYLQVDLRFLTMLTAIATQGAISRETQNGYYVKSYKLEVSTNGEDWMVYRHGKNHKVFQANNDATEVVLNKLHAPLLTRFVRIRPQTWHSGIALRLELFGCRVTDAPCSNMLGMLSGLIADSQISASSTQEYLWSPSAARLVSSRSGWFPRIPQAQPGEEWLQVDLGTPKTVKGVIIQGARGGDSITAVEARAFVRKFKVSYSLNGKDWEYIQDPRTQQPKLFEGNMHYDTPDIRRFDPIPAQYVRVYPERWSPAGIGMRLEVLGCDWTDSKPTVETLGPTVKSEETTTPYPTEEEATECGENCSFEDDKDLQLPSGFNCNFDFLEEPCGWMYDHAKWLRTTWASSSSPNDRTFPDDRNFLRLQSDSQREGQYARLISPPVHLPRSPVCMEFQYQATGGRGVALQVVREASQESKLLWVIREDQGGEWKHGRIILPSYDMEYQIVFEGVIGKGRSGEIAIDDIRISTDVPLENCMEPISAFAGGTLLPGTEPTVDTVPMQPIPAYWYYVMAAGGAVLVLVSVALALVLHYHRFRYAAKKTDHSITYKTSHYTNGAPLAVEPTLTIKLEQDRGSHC
Kind of test: flow cytometry, Expi293F cells transfected with the target, fluorescent anti-mouse secondary; MFI signal relative to mock-transfected cells. In general terms: A flow cytometer gives signals particle by particle.
Procedure: (§1) Signal to noise was calculated as the staining intensity of transfected cells compared to an un-transfected ‘mock’ population.

The target of test [17] is T16, NRP2v3.
T16 construct: not the NanoLuc-tagged construct m33; also called human NRP2 v3 expressed on Expi293F cells; NRP2a v3
T16 chain: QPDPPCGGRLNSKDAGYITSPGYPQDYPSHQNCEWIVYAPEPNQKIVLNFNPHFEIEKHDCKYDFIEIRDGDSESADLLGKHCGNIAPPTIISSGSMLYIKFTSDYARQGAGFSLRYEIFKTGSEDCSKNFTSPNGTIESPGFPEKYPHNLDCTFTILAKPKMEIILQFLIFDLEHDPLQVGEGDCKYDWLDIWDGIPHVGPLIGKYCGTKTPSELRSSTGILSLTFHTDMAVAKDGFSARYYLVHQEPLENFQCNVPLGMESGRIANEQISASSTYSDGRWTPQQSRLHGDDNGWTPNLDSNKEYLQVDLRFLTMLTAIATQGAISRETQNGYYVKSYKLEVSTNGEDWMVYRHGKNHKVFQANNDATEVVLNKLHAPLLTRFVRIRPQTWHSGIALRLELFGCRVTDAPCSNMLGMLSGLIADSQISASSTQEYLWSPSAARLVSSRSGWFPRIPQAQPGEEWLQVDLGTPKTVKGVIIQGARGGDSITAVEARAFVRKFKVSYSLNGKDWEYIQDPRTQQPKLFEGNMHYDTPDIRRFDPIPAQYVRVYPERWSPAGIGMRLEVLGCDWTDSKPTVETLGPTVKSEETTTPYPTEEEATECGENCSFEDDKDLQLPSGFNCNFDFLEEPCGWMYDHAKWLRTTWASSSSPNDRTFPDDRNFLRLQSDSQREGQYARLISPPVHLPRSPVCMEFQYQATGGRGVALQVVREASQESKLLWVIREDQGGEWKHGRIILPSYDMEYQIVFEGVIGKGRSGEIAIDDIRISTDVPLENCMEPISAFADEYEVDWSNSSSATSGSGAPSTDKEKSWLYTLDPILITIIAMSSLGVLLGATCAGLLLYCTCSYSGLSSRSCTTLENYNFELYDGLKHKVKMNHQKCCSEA
The description is as above.
Procedure: as §1

Test [18] concerns the target T12, Short NRP2A peptide (biotinylated). Kind of test: BLI, peptide on sensor.
The target in test [19] is T1, NRP2a_scan 1 peptide (biotinylated). Kind of test: BLI, peptide on sensor.
Test [20] addresses T3, NRP2b peptide (biotinylated). Kind of test: BLI, peptide on sensor.
In test [21] the target is T7, NRP2a_scan 5 peptide (biotinylated). Kind of test: BLI, peptide on sensor, 50 nM antibody.
The target in test [22] is T8, NRP2a_scan 6 peptide (biotinylated). Kind of test: BLI, peptide on sensor, 50 nM antibody.
For test [23], the target named is T10, Mid-NRP2A peptide (biotinylated). Kind of test: BLI, peptide on sensor, 50 nM antibody.
The target in test [24] is T11, Mid-mNRP2A peptide (biotinylated). Kind of test: BLI, peptide on sensor, 50 nM antibody.
The target of test [25] is T2, mNRP2A peptide (biotinylated). Kind of test: BLI, peptide on sensor, 50 nM antibody.

Like-named read-outs stand apart in the source and are kept apart here. Ends that are not written are not given here.

mNRP2b peptide (biotinylated) (mouse, biotin-conjugated, site not stated), sequence (peptide, as listed by the source): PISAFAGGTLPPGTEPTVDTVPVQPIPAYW

B1: aNRP2-400v2 (antibody, V domains shown)
VH: EVQLQESGAELARPGASVKLSCKASGYTFRSYGISWVKQRTGQGLEWIGEIYPRSGNTYYDENFKGRATLTADKSSSTAFMELRSLTSEDSAVYFCARSSITAVVAIPYYYAMDYWGQGTSVTVSS
VL: DIQMTQTTSSLSASLGDRVTISCSASQGISNYLNWYQQKPDGSVKLLIYYTSSLHSGVPSRFSGSGSGTDYSLTISNLEPEDIATYYCQQYSKLPHTFGGGTKLELK
notes: Mouse monoclonal
On to B1, for which the binding result in [1] was “binds”; in test [2], “no binding (tested: 50 nM)”; in test [3], “no binding (tested: 50 nM)”; in test [4], “no binding (tested: 50 nM)”; in test [5], “no binding (tested: 50 nM)”; in [6], “no binding (tested: 50 nM)”. The binding result in [7], in test [8], in test [9], in [10], in test [11] and in [12] was “no binding (tested: 50 nM)” each time. For the same molecule, the binding result in [13] was “binds”; in test [14], “binds”; in test [16] it was “no binding”; in test [17] it was “no binding”. In test [15], this molecule gave a blocks receptor dimerization of more than 50%.

B2: aNRP2-401v2 (antibody, V domains shown)
VH: EVQLQESGGGLVKPGGSLKLSCAASGFTFSDYGMHWVRQAPEKGLEWVATISRDINTVYYADTVKGRFTISRDNAKNTLFLQVTSLRSEDTAMYYCTRGGYTDYWGQGTTLTVSS
VL: DIVMTQTPLSLPVSLGDQASISCRSSQSLVHSNGNTYLYWYLQRPGQSPKLLIYKVSNRFSGVPDRFSGSGSGTDFTLKISRVEAEDLGVYFCSQSTHVLTFGGGTKLEIK
notes: Mouse monoclonal
With B2, the binding result in test [18], in [19], in test [4], in [5], in test [6] and in test [9] was “no binding (tested: 50 nM)” each time. Moreover, the binding result in test [20] was “no binding (tested: 50 nM)”; in [12] it was “no binding (tested: 50 nM)”; in [21], “binds”; in [22], “binds”; in test [23] it was “binds”; in test [24] it was “binds”. Moreover, the binding result in test [25] and in test [14] was “binds” in each case.
